Data from US20210072252A1.

Target: synthetic peptide with N-terminal methionine (Example 1, on nanogel surface)
Experiment: single-molecule detection, TIRF microscopy; labeled NAAB on peptide immobilized on nanogel; counts per field of view

- ratio of specific to non-specific binding: 2 to 1
Substance: wild-type E. coli methionine aminopeptidase (eMAP) (from UniProt P0AE18 1-264) (enzyme)
